According to a protein production outcome set (Wang et al. 2014):

Assay: label from the status in PepcDB records

| Sequence | protein production |
| --- | --- |
| MLYFIPTPIGNLSDISFRALELLKTCDLVFCEDTRVSKSLISLLNTKFHTDIHISKFIALHSHNEKEVLASIDLKIFEKNVAYLSDAGMPGISDPGKALVEFAQENNITYEILPGA | not failed |
| MSSDKTLNVKATGIIALAVMCSRVLGLIREVLFNALFGSASMGIFLIAFRAPNLLRDLFAEGALSVSFITVFSKKIETEGEKSAWQLASKMLTLTSVFMSILCLFGIIFAKYLIFILAPGFSVKDAETTIFLTQLMFPFILLVSLAAIVMGMLNSKNVFGMPALASSFFNIGSILGGALCGWFIDPSFGERALIGLAIGTVIGGLLQLGVQFPSLRKVGFYFKPNFHWYDSGVRNTLILTIPAVIAASAVQINVLINSGFASYLGKEAVTWLNSAFRLMQFPLGVLGVAIATITLPVVSRLAATNNHSQFGSTLARAIRLAVFLTMPAAVGLWFFATPIISLIYEHGKFHASDSLQTAYALQFYALGLVAYSCIKVLSPAFYAIDKKWTPMIVSFATIILNIILNYFLIFKLSMGHRGLALSTTVSATVNFLVLYVLMTRLHNLQNRYLFNTILRCVLASAILGFMCQSIFAYGADFLYHPSFWIRAVSLAISISFAVLVYLSMCVILRVDEAKSIFMIIRHRLGFPIKFKSKQV | failed |
| MPETAWLSDIETLTYLHATVSTHRHQVRVPETPMHLDAILADQVLTGGLEPRLGQAHLRTLTIMGFPSQTWPGLLDDLNRLAFDYRWVTRAICLDKTDAAKVLGRIRRQWFAKRKSIAAMLKEIMTNEASALMDSDAANKAVDADMALQELGSDLVGAAYVTATVTIWNDDPRIADERLRLVEKVIQGRDFTCMVERVNAVEAWLGSLPGHVYANVRQPPVSTLNLAHMMPFSAVWAGPERDEHFDAPPLFLAKTEGSTPFRFSLHVGDVGHTLVVGPTGAGKSVLLALMALQFRRYARSQIFAFDFGGSIRAAALAMRGDWHDLGGSLAEDASEPVALQPLAGIDAEEERAWAAEWVAAILAREKVEITPDVKEHVWSALNNLASAPKSERTLTGLSVLLQSQALKQALKPYCVGGPWGRLLDAETERVGSADVLAFETEGLIGTGAAAAVLAYLFHRIEHRLDGRPTLLIVDEGWLALDDEGFASQLREWLKTLRKKNASVIFATQSLADIDGSAIAPAIIESCPTRLFLPNERALEPQIATIYERFGLNDRQIEILSRATPKRDYYCQSRRGNRLFELGLGEVALAFTAASSKGDQILIARLMAEHGPTGFAKAWLEARGVAWATDLIITPQKEKLPLEHHHHHH | not failed |
| MTCAYRREIHHAHVAIRDWLAGDSRADALDALMARFAEDFSMVTPHGVVLDKTALGELFRSKGGTRPGLRIEIDGESLLASGVDGATLAYREIQSDAAGRSERLSTVVLHRDDEGRLYWRHLQETFCG | not failed |
| MDTPLGSVLYITLGCAKNEVDTDRMRSLLTAAGYEEAFDPQDADIAIVNTCSFLASATSESIETTLELANEVQDGVRSCPIVMCGCVPSRYGDDLPDELPEVAAFVKADEEDGIVAVIDGVLGVEREIAAYIPQVKRTVEGAVAYVKISDGCNRFCSFCMIPYIRGRYHSRNSESIISEVRDLVAGGVREIVLIGQDTGIWGTDFADEDVADGSPRNLAQLLRAVAEAVRPHNVWVRVLYLQPEGMTDELIDTIRDTPEVLPYIDIPVQHCDARILKAMRRSGSRQELEDLFRDLRERIPGIVIRSTAMVGFPTETDDEFRDLIDFMDTVGFDYTSVFAYSREEGSLAAKMEGQVDEEVKLERAQEAMDLAESLGFAATAAHVGERAQVIVDGIEETEDGAELIGHAWFQAPDSDGAVHLDASEASVGDILTVEFTDSFCYELIGHVVE | failed |
| GHMHTPFIVALDFPSKQEVERFLRPFAGTPLFVKVGMELYYQEGPAIVAFLKEQGHAVFLDLKLHDIPNTVKQAMKGLARVGADLVNVHAAGGRRMMEAAIEGLDAGTPSGRMRPRCIAVTQLTSTDERMLHEELWISRPLVETVAHYAALAKESGLDGVVCSANEAAFIKERCGASFLAVTPGIRFADDAAHDQVRVVTPRKARALGSDYIVIGRSLTRAADPLRTYARLQHEWNGGERESTTPT | not failed |
